The record followed here is paper PMC4447253 (mBio, 2015).

Series [1] deals with the molecule itself. Kind of series: native gel or EMSA.
Series [2] deals with the molecule itself. Kind of series: cross-linking.

As a reminder, the stoichiometry N is a count of units in the complex or per binding partner.

B1: SpdB2-His (SpdB2 of plasmid pSVH1) (natural protein, Streptomyces venezuelae (plasmid pSVH1), UniProt Q3LAJ4 1-409, looked up)
chain: MSTYREEKRLDDQLRAEQKLRNEQLRAEQAREDRRLELEATQQRDAARAEEKRKDAEAKRRQEQAEKKARAAEQQAKKAAAAAKRAKLVRWLKANPATLFVGFVMVASIVPALLSQIGALTGATVAAPMAGLLAAMLEGGAWAITFMGKQAEDAGREPRKYRIGTWAVATVAAAVNFWHGLEAYGEHPWVAFVLGASSLFAIYIWDLKTHGSHGKTKEQKQAEKARRAHVSARRKHHPEIVEQAVKLQAALPYGVLDDESAFAAAWRIHTGAEPGLSAQLYATATEAVLQLGAAFELGDNVRDELLETGFKAARLNPFAELAQVPGSQAGLEENAPQGPASALRPDAPEGKSPEELEALLPDAVAAAAELVAEGRQISAHGLAKKLQIRRVDAALLRDRVIEQRRLHVA
For the protein B1, the binding result in series [1] is “binds”.

B2: TraR-His (GntR-type transcriptional repressor TraR of plasmid pSVH1) (natural protein, Streptomyces venezuelae (plasmid pSVH1), UniProt Q3LAJ7 1-252, looked up)
chain: MTSTQSEKRVTARSIADDLRGKIRSGQLLPGSVLPTTKALAEEHGVSSKTVSAGIDLLKLEGLVVGEQGGRRRVRADRPITWNLTRFERGARRDSAVMDDWSTAISEAGRTPEQHVSVSRETANSDIAGWLQVPVGDDVVKRVRMRTVDGRPFQLSTSYFPKHVAVGTLLEEPGDVAVPGGILSHIGHPQLRVRDEISVRMPSPEESQELALPPGTPVAQHVRVGYGETGPVRVMVTIAPGDRHTLVYELEV
Regarding B2, the “stoichiometry N” value in series [2] was found to be 2.
